Assay results published in patent US20210300987A1 (published 2021).

T1: HA-1^R (minor histocompatibility antigen 1, HMHA1 gene, R allele) peptide on HLA-A*02:01 (human)
T1 peptide: VLRDDLLEA

T2: Astn1 P1268L (control peptide) peptide on HLA-A*02:01 (human)
T2 peptide: KLYGLDWAEL

T3: HA-1^H (minor histocompatibility antigen 1, HMHA1 gene, H allele) peptide on HLA-A*02:01 (human)
T3 peptide: VLHDDLLEA


Tests used:
[1] = biological target: HA-1^R-peptide (…) loaded on HLA-A*02:01 encoded molecules on T2 cells (human); assay: cell-based or functional assay
[2] = biological target: T1, HA-1^R (minor histocompatibility …); assay: cytokine release
[3] = biological target: T2, Astn1 P1268L (control peptide) peptide …; assay: cytokine release
[4] = biological target: T3, HA-1^H (minor histocompatibility …); assay: multimer staining
From the text: Transduced CD8 T cells were enriched by FACS using the murine constant beta region as a marker for transduction. After expansion of these cells, they were stained with an HA-1^H-MHC-multimer and antibodies against CD8 and the murine constant beta region (mCb) and analyzed by flow cytometry.
The nucleotide sequences of the isolated TCRs were codon optimized using the GeneOptimizer™ algorithm (ThermoFisher) and the constant regions were murinized. Codon optimized and murinized TCRs were used for all further experiments described herein. They were stained with an HA-1^H-MHC-multimer (immunAware) and antibodies against CD8 and the murine constant beta region. […] (FIG. 1)

[5] = biological target: T3, HA-1^H (minor histocompatibility …); assay: killing

Row | peptide concentration needed for recognition (IFN-γ release), relative to HA-1^H [1] [times] | binding result [3] | binding result [4] | Binder | further results
1 | > 10000 |  |  | TCR_2, P01849 1-136 (TCR, not shown: a dimerising Fc or GST) TCR alpha: GENVEQHPSTLSVQEGDSAVIKCTYSDSASNYFPWYKQELGKGPQLIIDIRSNVGEKKDQRIAVTLNKTAKHFSLHITETQPEDSAVYFCAAHTPGYSTLTFGKGTMLLVSPDIQNPEPAVYQLKDPRSQDSTLCLFTDFDSQINVPKTMESGTFITDKTVLDMKAMDSKSNGAIAWSNQTSFTCQDIFKETNATYPSSDVPCDATLTEKSFETDMNLNFQNLSVMGLRILLLKVAGFNLLMTLRLWSS TCR beta: DTGVSQNPRHKITKRGQNVTFRCDPISEHNRLYWYRQTLGQGPEFLTYFQNEAQLEKSRLLSDRFSAERPKGSFSTLEIQRTEQGDSAMYLCASSPRAGGETQYFGPGTRLLVLE | 
2 | > 10000 |  |  | TCR_1, P01849 1-136 (TCR, not shown: a dimerising Fc or GST) TCR alpha: GENVEQHPSTLSVQEGDSAVIKCTYSDSASNYFPWYKQELGKGPQLIIDIRSNVGEKKDQRIAVTLNKTAKHFSLHITETQPEDSAVYFCAASDLNFGKGTSLLVTPHIQNPEPAVYQLKDPRSQDSTLCLFTDFDSQINVPKTMESGTFITDKTVLDMKAMDSKSNGAIAWSNQTSFTCQDIFKETNATYPSSDVPCDATLTEKSFETDMNLNFQNLSVMGLRILLLKVAGFNLLMTLRLWSS TCR beta: DTGVSQNPRHKITKRGQNVTFRCDPISEHNRLYWYRQTLGQGPEFLTYFQNEAQLEKSRLLSDRFSAERPKGSFSTLEIQRTEQGDSAMYLCASSLVSRVDGYTFGSGTRLTVVE | 
3 |  | no recognition | recognises | TCR_2 (TCR, V domains shown) Valpha: GENVEQHPSTLSVQEGDSAVIKCTYSDSASNYFPWYKQELGKGPQLIIDIRSNVGEKKDQRIAVTLNKTAKHFSLHITETQPEDSAVYFCAAHTPGYSTLTFGKGTMLLVSP Vbeta: DTGVSQNPRHKITKRGQNVTFRCDPISEHNRLYWYRQTLGQGPEFLTYFQNEAQLEKSRLLSDRFSAERPKGSFSTLEIQRTEQGDSAMYLCASSPRAGGETQYFGPGTRLLVL | binding result [2]: no recognition
4 |  | no recognition | recognises | TCR_3 (TCR, V domains shown) Valpha: SQQGEEDPQALSIQEGENATMNCSYKTSINNLQWYRQNSGRGLVHLILIRSNEREKHSGRLRVTLDTSKKSSSLLITASRAADTASYFCATGDQTGANNLFFGTGTRLTVIP Vbeta: DTGVSQNPRHKITKRGQNVTFRCDPISEHNRLYWYRQTLGQGPEFLTYFQNEAQLEKSRLLSDRFSAERPKGSFSTLEIQRTEQGDSAMYLCASSLTRTEKLFFGSGTQLSVL | 
5 |  | no recognition | recognises | TCR_5 (TCR, V domains shown) Valpha: TQLLEQSPQFLSIQEGENLTVYCNSSSVFSSLQWYRQEPGEGPVLLVTVVTGGEVKKLKRLTFQFGDARKDSSLHITAAQTGDTGLYLCAGAGNNDMRFGAGTRLTVKP Vbeta: DTGVSQNPRHKITKRGQNVTFRCDPISEHNRLYWYRQTLGQGPEFLTYFQNEAQLEKSRLLSDRFSAERPKGSFSTLEIQRTEQGDSAMYLCASSLVRGIEAFFGQGTRLTVV | 
6 |  | no recognition |  | TCR_6 (TCR, V domains shown) Valpha: GEDVEQSLFLSVREGDSSVINCTYTDSSSTYLYWYKQEPGAGLQLLTYIFSNMDMKQDQRLTVLLNKKDKHLSLRIADTQTGDSAIYFCAEKWIIFGKGTRLHILP Vbeta: DTGVSQNPRHKITKRGQNVTFRCDPISEHNRLYWYRQTLGQGPEFLTYFQNEAQLEKSRLLSDRFSAERPKGSFSTLEIQRTEQGDSAMYLCASSLTTPDGYTFGSGTRLTVV | binding result [5]: recognises
7 |  | no recognition | recognises | TCR_4 (TCR, V domains shown) Valpha: GENVEQHPSTLSVQEGDSAVIKCTYSDSASNYFPWYKQELGKGPQLIIDIRSNVGEKKDQRIAVTLNKTAKHFSLHITETQPEDSAVYFCAGRGKLTFGTGTRLTIIP Vbeta: DTGVSQNPRHKITKRGQNVTFRCDPISEHNRLYWYRQTLGQGPEFLTYFQNEAQLEKSRLLSDRFSAERPKGSFSTLEIQRTEQGDSAMYLCASSLVRDEKLFFGSGTQLSVL | 
8 | > 10000 |  |  | TCR_3, P01849 1-136 (TCR, not shown: a dimerising Fc or GST) TCR alpha: SQQGEEDPQALSIQEGENATMNCSYKTSINNLQWYRQNSGRGLVHLILIRSNEREKHSGRLRVTLDTSKKSSSLLITASRAADTASYFCATGDQTGANNLFFGTGTRLTVIPYIQNPEPAVYQLKDPRSQDSTLCLFTDFDSQINVPKTMESGTFITDKTVLDMKAMDSKSNGAIAWSNQTSFTCQDIFKETNATYPSSDVPCDATLTEKSFETDMNLNFQNLSVMGLRILLLKVAGFNLLMTLRLWSS TCR beta: DTGVSQNPRHKITKRGQNVTFRCDPISEHNRLYWYRQTLGQGPEFLTYFQNEAQLEKSRLLSDRFSAERPKGSFSTLEIQRTEQGDSAMYLCASSLTRTEKLFFGSGTQLSVLE | 
9 | > 10000 |  |  | TCR_5, P01849 1-136 (TCR, not shown: a dimerising Fc or GST) TCR alpha: TQLLEQSPQFLSIQEGENLTVYCNSSSVFSSLQWYRQEPGEGPVLLVTVVTGGEVKKLKRLTFQFGDARKDSSLHITAAQTGDTGLYLCAGAGNNDMRFGAGTRLTVKPNIQNPEPAVYQLKDPRSQDSTLCLFTDFDSQINVPKTMESGTFITDKTVLDMKAMDSKSNGAIAWSNQTSFTCQDIFKETNATYPSSDVPCDATLTEKSFETDMNLNFQNLSVMGLRILLLKVAGFNLLMTLRLWSS TCR beta: DTGVSQNPRHKITKRGQNVTFRCDPISEHNRLYWYRQTLGQGPEFLTYFQNEAQLEKSRLLSDRFSAERPKGSFSTLEIQRTEQGDSAMYLCASSLVRGIEAFFGQGTRLTVVE | 
10 | > 10000 |  |  | TCR_4, P01849 1-136 (TCR, not shown: a dimerising Fc or GST) TCR alpha: GENVEQHPSTLSVQEGDSAVIKCTYSDSASNYFPWYKQELGKGPQLIIDIRSNVGEKKDQRIAVTLNKTAKHFSLHITETQPEDSAVYFCAGRGKLTFGTGTRLTIIPNIQNPEPAVYQLKDPRSQDSTLCLFTDFDSQINVPKTMESGTFITDKTVLDMKAMDSKSNGAIAWSNQTSFTCQDIFKETNATYPSSDVPCDATLTEKSFETDMNLNFQNLSVMGLRILLLKVAGFNLLMTLRLWSS TCR beta: DTGVSQNPRHKITKRGQNVTFRCDPISEHNRLYWYRQTLGQGPEFLTYFQNEAQLEKSRLLSDRFSAERPKGSFSTLEIQRTEQGDSAMYLCASSLVRDEKLFFGSGTQLSVLE | 
11 | > 10000 |  |  | TCR_6, P01849 1-136 (TCR, not shown: a dimerising Fc or GST) TCR alpha: RGEDVEQSLFLSVREGDSSVINCTYTDSSSTYLYWYKQEPGAGLQLLTYIFSNMDMKQDQRLTVLLNKKDKHLSLRIADTQTGDSAIYFCAEKWIIFGKGTRLHILPNIQNPEPAVYQLKDPRSQDSTLCLFTDFDSQINVPKTMESGTFITDKTVLDMKAMDSKSNGAIAWSNQTSFTCQDIFKETNATYPSSDVPCDATLTEKSFETDMNLNFQNLSVMGLRILLLKVAGFNLLMTLRLWSS TCR beta: DTGVSQNPRHKITKRGQNVTFRCDPISEHNRLYWYRQTLGQGPEFLTYFQNEAQLEKSRLLSDRFSAERPKGSFSTLEIQRTEQGDSAMYLCASSLTTPDGYTFGSGTRLTVVE | 
12 |  | no recognition | recognises | TCR_1 (TCR, V domains shown) Valpha: GENVEQHPSTLSVQEGDSAVIKCTYSDSASNYFPWYKQELGKGPQLIIDIRSNVGEKKDQRIAVTLNKTAKHFSLHITETQPEDSAVYFCAASDLNFGKGTSLLVTP Vbeta: DTGVSQNPRHKITKRGQNVTFRCDPISEHNRLYWYRQTLGQGPEFLTYFQNEAQLEKSRLLSDRFSAERPKGSFSTLEIQRTEQGDSAMYLCASSLVSRVDGYTFGSGTRLTVV | 
